Laboratory results reported in the supplement of paper PMC10567573.

B1: GMCL1 (parent)
chain: RPDTGDDAAGHGFCYCAGSHKRKR
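Note: lentivirally expressed fusions sorted by FACS into six bins by GFP to DsRed ratio, PSI derived from sequencing read proportions per bin multiplied by bin number.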

Variants of: B1
Assay: protein stability index of a GFP-peptide fusion (GPS, HEK-293T) (PSI 1-6); higher = more stable
Settings: c terminus: a fixed tail appended
Variant RPDTGDDAATHGFCYCAGSHKRKR has a protein stability index of 3.18.
Variant RPDTGDDAAFHGFCYCAGSHKRKR has a protein stability index of 2.9.
With RPDTGDDAALHGFCYCAGSHKRKR the protein stability index was 2.36.
With RPDTGDDAAVHGFCYCAGSHKRKR the protein stability index was 3.49.
In the case of RPDTGDDAAIHGFCYCAGSHKRKR, the protein stability index is reported as 2.71.
Variant RPDTGDDAACHGFCYCAGSHKRKR has a protein stability index of 2.78.
For RPDTGDDAAAHGFCYCAGSHKRKR, the protein stability index was 2.86.
With RPDTGDDAARHGFCYCAGSHKRKR the protein stability index was 2.81.
RPDTGDDAAYHGFCYCAGSHKRKR gave a protein stability index of 2.91.
Variant RPDTGDDAAMHGFCYCAGSHKRKR has a protein stability index of 3.2.
For RPDTGDDAAHHGFCYCAGSHKRKR, the protein stability index was 3.1.
RPDTGDDAASHGFCYCAGSHKRKR gave a protein stability index of 2.95.
RPDTGDDAAEHGFCYCAGSHKRKR gave a protein stability index of 3.14.
With RPDTGDDAADHGFCYCAGSHKRKR the protein stability index was 3.37.
Work on RPDTGDDAAQHGFCYCAGSHKRKR yielded a protein stability index of 3.36.
RPDTGDDAAPHGFCYCAGSHKRKR gave a protein stability index of 2.73.
RPDTGDDAAWHGFCYCAGSHKRKR gave a protein stability index of 2.84.
Variant RPDTGDDAANHGFCYCAGSHKRKR has a protein stability index of 3.71.
RPDTGDDAAKHGFCYCAGSHKRKR gave a protein stability index of 3.22.
RPDTGDDAAGHGRCYCAGSHKRKR showed a protein stability index of 2.94.
For RPDTGDDAAGHGVCYCAGSHKRKR, the protein stability index was 3.55.
Variant RPDTGDDAAGHGQCYCAGSHKRKR has a protein stability index of 3.9.
RPDTGDDAAGHGKCYCAGSHKRKR gave a protein stability index of 3.35.
Variant RPDTGDDAAGHGICYCAGSHKRKR has a protein stability index of 3.02.
With RPDTGDDAAGHGLCYCAGSHKRKR the protein stability index was 2.87.
RPDTGDDAAGHGACYCAGSHKRKR gave a protein stability index of 3.12.
For RPDTGDDAAGHGNCYCAGSHKRKR, the protein stability index was 3.4.
For RPDTGDDAAGHGECYCAGSHKRKR, the protein stability index was 3.99.
With RPDTGDDAAGHGGCYCAGSHKRKR the protein stability index was 3.69.
Work on RPDTGDDAAGHGTCYCAGSHKRKR yielded a protein stability index of 3.34.
With RPDTGDDAAGHGWCYCAGSHKRKR the protein stability index was 3.45.
For RPDTGDDAAGHGMCYCAGSHKRKR, the protein stability index was 3.25.
Work on RPDTGDDAAGHGHCYCAGSHKRKR yielded a protein stability index of 3.86.
For RPDTGDDAAGHGPCYCAGSHKRKR, the protein stability index was 3.55.
For RPDTGDDAAGHGCCYCAGSHKRKR, the protein stability index was 2.19.
Variant RPDTGDDAAGHGDCYCAGSHKRKR has a protein stability index of 3.82.
With RPDTGDDAAGHGSCYCAGSHKRKR the protein stability index was 2.84.
RPDTGDDAAGHGYCYCAGSHKRKR gave a protein stability index of 2.65.
In the case of RPDTGDDWAGHGFCYCAGSHKRKR, the protein stability index is reported as 3.38.
RPDTGDDDAGHGFCYCAGSHKRKR showed a protein stability index of 2.97.
Variant RPDTGDDKAGHGFCYCAGSHKRKR has a protein stability index of 2.94.
In the case of RPDTGDDIAGHGFCYCAGSHKRKR, the protein stability index is reported as 3.06.
Work on RPDTGDDNAGHGFCYCAGSHKRKR yielded a protein stability index of 2.96.
For RPDTGDDMAGHGFCYCAGSHKRKR, the protein stability index was 2.85.
For RPDTGDDTAGHGFCYCAGSHKRKR, the protein stability index was 2.73.
For RPDTGDDHAGHGFCYCAGSHKRKR, the protein stability index was 3.61.
For RPDTGDDRAGHGFCYCAGSHKRKR, the protein stability index was 3.08.
With RPDTGDDCAGHGFCYCAGSHKRKR the protein stability index was 3.23.
Work on RPDTGDDSAGHGFCYCAGSHKRKR yielded a protein stability index of 3.72.
Variant RPDTGDDYAGHGFCYCAGSHKRKR has a protein stability index of 2.61.
Work on RPDTGDDGAGHGFCYCAGSHKRKR yielded a protein stability index of 3.11.
With RPDTGDDFAGHGFCYCAGSHKRKR the protein stability index was 2.61.
RPDTGDDQAGHGFCYCAGSHKRKR showed a protein stability index of 3.16.
RPDTGDDPAGHGFCYCAGSHKRKR showed a protein stability index of 3.09.
For RPDTGDDVAGHGFCYCAGSHKRKR, the protein stability index was 3.18.
In the case of RPDTGDDLAGHGFCYCAGSHKRKR, the protein stability index is reported as 2.36.
In the case of RPDTGDDEAGHGFCYCAGSHKRKR, the protein stability index is reported as 3.26.
For RPDTGDRAAGHGFCYCAGSHKRKR, the protein stability index was 3.51.
RPDTGDVAAGHGFCYCAGSHKRKR gave a protein stability index of 3.16.
RPDTGDWAAGHGFCYCAGSHKRKR showed a protein stability index of 2.2.
Work on RPDTGDPAAGHGFCYCAGSHKRKR yielded a protein stability index of 3.28.
In the case of RPDTGDNAAGHGFCYCAGSHKRKR, the protein stability index is reported as 3.13.
Variant RPDTGDSAAGHGFCYCAGSHKRKR has a protein stability index of 3.47.
RPDTGDQAAGHGFCYCAGSHKRKR showed a protein stability index of 2.83.
Variant RPDTGDMAAGHGFCYCAGSHKRKR has a protein stability index of 3.44.
In the case of RPDTGDLAAGHGFCYCAGSHKRKR, the protein stability index is reported as 3.03.
With RPDTGDYAAGHGFCYCAGSHKRKR the protein stability index was 2.99.
RPDTGDKAAGHGFCYCAGSHKRKR gave a protein stability index of 3.03.
For RPDTGDTAAGHGFCYCAGSHKRKR, the protein stability index was 3.49.
For RPDTGDDAAGNGFCYCAGSHKRKR, the protein stability index was 2.32.
RPDTGDDAAGKGFCYCAGSHKRKR showed a protein stability index of 3.16.
Variant RPDTGDDAAGVGFCYCAGSHKRKR has a protein stability index of 2.75.
RPDTGDDAAGEGFCYCAGSHKRKR showed a protein stability index of 3.49.
In the case of RPDTGDDAAGDGFCYCAGSHKRKR, the protein stability index is reported as 3.45.
For RPDTGDDAAGRGFCYCAGSHKRKR, the protein stability index was 3.43.
Variant RPDTGDDAAGCGFCYCAGSHKRKR has a protein stability index of 2.47.
Variant RPDTGDDAAGLGFCYCAGSHKRKR has a protein stability index of 3.14.
Work on RPDTGDDAAGMGFCYCAGSHKRKR yielded a protein stability index of 3.15.
In the case of RPDTGDDAAGAGFCYCAGSHKRKR, the protein stability index is reported as 3.64.
RPDTGDDAAGPGFCYCAGSHKRKR showed a protein stability index of 3.21.
With RPDTGDDAAGGGFCYCAGSHKRKR the protein stability index was 3.18.
RPDTGDDAAGTGFCYCAGSHKRKR showed a protein stability index of 4.18.
In the case of RPDTGDDAAGFGFCYCAGSHKRKR, the protein stability index is reported as 3.27.
RPDTGDDAAGIGFCYCAGSHKRKR gave a protein stability index of 3.26.
Variant RPDTGDDAAGSGFCYCAGSHKRKR has a protein stability index of 3.24.
For RPDTGDDAAGWGFCYCAGSHKRKR, the protein stability index was 2.95.
For RPDTGDDAAGQGFCYCAGSHKRKR, the protein stability index was 3.22.
Variant RPDTGDDAAGYGFCYCAGSHKRKR has a protein stability index of 2.84.
Variant RPDTGDDAMGHGFCYCAGSHKRKR has a protein stability index of 2.96.
RPDTGDDAKGHGFCYCAGSHKRKR gave a protein stability index of 3.07.
Work on RPDTGDDASGHGFCYCAGSHKRKR yielded a protein stability index of 2.7.
RPDTGDDANGHGFCYCAGSHKRKR showed a protein stability index of 3.52.
Work on RPDTGDDARGHGFCYCAGSHKRKR yielded a protein stability index of 3.46.
In the case of RPDTGDDAPGHGFCYCAGSHKRKR, the protein stability index is reported as 3.01.
